These results are taken from a protein production outcome set (Wang et al. 2014).
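Further: failed if final PepcDB status was selected cloned or expressed and not failed if soluble or beyond.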

The data set can be described thus: label from the status in PepcDB records.
As to “MRLFAINAGNFKLDGGAMFGVVPKSIWNKLNPADSNNLCTWATRCLLIENGKQLVLIDTGLGDKQDESFFRHYYRDTPQTWDTLLKPYGFHSSDITDVVLTHLHFDHVGGALEKKGDKIVPTFSNARYWSNTRHWDWAVEPNPREKASFLKDNLFPLQESGQLYFVDTQNLPFEWMDFIFVDGHTEQQMLPLITTPAEKKILYAADLLPSAGHIPMPYIMSYDVRPLVSMQEKERVFNQVLAEDWTVFLEHDLSNACISLQQTEKGIRLNNVFQISDFNLEHHHHHH”, the protein production result is listed as “failed”. The entry for “MRLIEQAIEKIESGQVTEGLTALEEAAKTANHEMKYTVAETYYELGHLDKAQAIIDELLMLYPDEGGLYTFAAEILIDLNKEDEAIEMLNEIKEQDPAFLQAQLLLADLYQLQSLDEVAEQKLLKAYEVAPDEPIISFGLGEFYLERGDYIKSIPHLKRAKHGGLTNDQVNVSLKLAEAYSGSGQFEEALPHYDEGLKQKLDPHGLFGYGYTAYLLGDYVLAIEQFQALKALDPDFYDPIPVFGEGFRRGKSFRGSNGCFKRGDDRGLEHHHHHH” is “not failed”. For “MRLKPLPSRPLLGGVLFFALVFAFAGINPWGGGHEGVWNAPREGGMALFALAALAGVLLERRGRGLSVGGGALLALLASAGFLLAGAASTLLSPQPIWSWTGYPSVGDGLRFWALGVAFAWAVFLALETRVLSPRGLFGALLLALGLHALAVFPQVVDWKLDYTQTQGQTYVRCFDRERTDCYENPNATASGIYRGQMPIGLTSHRGHAAGVLALLGLVAAGLYLRSPRPGLLLLFGLGALALWFTQTRGGWLALWGTLALLALGLTWKRPGRLRPALALFLVGALSYGLYLALGQMGVQEPRRFPELGASFAEANAYSSGRLELWRKALAALPLRPWLGWGFDGYARASPHAVDWNGEDRRFVPAALSLPVRLVQGEDRLFYLEDPTGLRLLAPAPYAKAHNLFLDLLLSVGVLGGAAYLLWLGAALRQASWAKLPFALAVAGYLLYGLTWYDSVHVTPLALLALGALVTREEVWRGA” the value was “failed”. For the sequence “MRLLPRETGDGDRPRVARSARPRAGSAVEGALSAAQRPLRHGAYPRRATSPVARVRMVFLALVATLFALPALAEPKFPPLSGRVVDEAQVLSPDVERDLSDKLAALETRTGHQLVVATVSSLQGYPIEDYGYRLGRTWGIGDKDKDDGAILLVAPNDRQVRIEVGYGLEPVLTDALSSVIIQSAILPKFRDGDLSGGIVAGADAMIEQLGLPPEEAKARVADAARPERHEARGSPIVGFLILLFIIFVFSSLFRGRRGGLGSALPWIILSALNNSGRGGGGWGGGGGGGFSGGGGSFGGGGSSGRW”, the protein production entry was “failed”.

Consider “MRLLYVIKKENPMDQMPNCPKCQSEYVYHDSINFVCPDCGNEWDNNEIQESDDDQLIVKDSNGNLLAEGDNVLLIKDLKLKGSSEVLKKGTKFKNIRLVNGDHNVDCGKIMLKSEFLKKA”, for which the protein production result is reported as “failed”.

Consider “MRLLYVIKKENPMDQMPNCPKCQSEYVYHDSINFVCPDCGNEWDNNEIQESDDDQLIVKDSNGNLLAEGDNVLLIKDLKLKGSSEVLKKGTKFKNIRLVNGDHNVDCGKIMLKSEFLKKALEHHHHHH”, for which the protein production result is on record as “not failed”. The entry for “MRLPRQIRLPHLRDIGALLTDSAREWSRHRASSKGAALSLYMVFSLAPMLILVIAVAGAFFGEEAVRSELFSQVRDLTGERGAEVIQTVLASAHESGSGWLAALLSICVLVFSATTAFAELKASLDELWDVKEDKSGLQGLVRSRMLSFGLVLVLALFLLLSLTLNAALGAAKGYYGDLWSTSAFAMAADWLSNLFSFAVVTALFAVVYKLLPSKRIPWLDVIPGAIVTAALFLAGKWGIGLYLERGTAVSAYGAAGSLIALLLWIYYSAQIFFFGAVFTRQFAERFGNLRRAAPA” is “not failed”; for “MRLSAEQVVEVLRAAGESTRLRLLALLAAEELSVLELCRILDQSQPRVSRHLKLLAEAGLVERFPDGAWVFYRLAAKSPGRLLVEQALDLIDEGDETVQSDADKLAAVRAERSTDAQAYFARNAARWNEIRSLYVDEAEVEAAILRATGEGPFDEMVDLGAGAGRMLTLLGKRAANALGLDLSQQMLNIARDEVSKAGLTACELRHGDIFRTGLPGGCADLVTVHQVLHYLTDPATAVAEAARLVTPGGLLLIADFAPHGHEFLREVHQHRRLGFDDAEIVAWLQAAGLVLESNIALPPATAEGLTVKIWTARRPGKASLERSAA” it is “failed”; for “MRLSFGITSKLFVALFALSMVVALAMGAAVRWRFDTNFLDYVNAREAERMAVFAQSIESVYAEHGNWGVLRNDRQAWYRLIRREIGRTHAGPFGGPRGDAEPVPPFAPPPGDVPPPGLPPPPPDAGDRPPQHPPGEGPGMHPPIWLLDAGRVPIVGDGPPPGPGSQWHALHHNGQTVGWLATPQRMHVPEGADQAFLAQQLRATWIIAALSVLLAAGVAILLARGVLAPMRRLAHATRRMAEGDYAARVDVHSGDEIGHLADDFNRLAETLEANQKMRRQLTADISHELRTPLAVLRGELEALEDGVRALTPASLTSLQAEVGTLSKLIDDLYELSLADVGALAFHMESIDLADTVCSAAQGFTPRLMDKRIALQLDLPTGPSRDAAIQGDPQRLRQLMQNLLENTLRYTDAGGTLRIHVHRAGAWWCLDVQDSAPGVPEAMLPRVFDRLFRADPSRGRAQGGAGLGLSLCQTIVQTHGGTIDARPSPLGGLWIAIRLPAANSSVADHDPDR” it is “failed”. As to “MRLTARSEPSSAPFPSGTGRQIGADCNGPSACQALQFTPFCPSRDNEMSDWSLDQARKTYSIPHWADGYFDVNDAGHVVVRPTADGPAVSLPEVVDAARAAGAKLPLLVRFPDILGQRLGKLQAAFAQAQADWDYAGGYTAVYPIKVNQHRGVAGTLASHHGEGFGLEAGSKPELMAVLALSRPGGLIVCNGYKDREYIRLALIGRKLGLQTFIVIEKPSELNLVLEEARALDVKPGLGVRMRLASLGAGKWQNSGGDKAKFGLSPRQVLDLWKSLRDTEYADSLNLLHFHMGSQISNVRDIANGMREATRYFVELSRLGAKISHVDVGGGLGIDYEGTRSRSYCSINYGLHSYASNIVQPLASACEEHGLPPPRIVTECGRAMTAHHAVLIANVSEVEQAPEGRVPDAHDDEPAAIRHLREIHDELDVRPAVELFQEAQHFHAEGLSAYALGQIDLTHRARIDDLFYAIAHGVRARLSFDEKSHRPVLDELNERLVDKYFVNFSVFESIPDVWAIDQVFPIVPIERLNEAPQRRGIIADMTCDSDGMVKTYVENESLDSSLPLHGLNPGESYRIGFFLVGAYQEILGDIHNLFGDTDAVEVAVDGTGYRIAQQRRGDTTDVMLDYVGYQLDTLRATYAERIAAAQLPPERAQELHDALEAGLTGYTYLSDEPLG”, the protein production entry was “failed”. The entry for “MRLTDQKRESIVQAAIAEFGDRGFEITSMDRIAARAEVSKRTVYNHFPSKEELFAEMLQRLWNCAPPQSEVVYRPLVSLREQLLELLWGKMRNLTDSSFLDLARVVVGATIHSPERAQVWLARINEREETFSAWIRAAQKDGRLKPVDPGFAATQMHALLKSFAFWPQVTFNAALLTPQEQSNVVESALNMFLGWYEIPG” is “not failed”; for “MRLTSKGRYAVTAMLDVALNSEAGPVPLADISERQGISLSYLEQLFSRLRKNGLVSSVRGPGGGYLLGKDASSIAVGEVISAVDESVDATRCQGKGGCQGGDKCLTHALWRDLSDRLTGFLNNITLGELVNNQEVLDVSGRQHTLEHHHHHH” it is “not failed”; for “MRLTVDQALAQAIAAHRSGQLQDAERLYRAILDAAPGHADANHNLGVLAVGVGKPQAGLSFLKAALEINPAQGQFWVSYIDALIAAGLPAAARDHLEQAKRRGLTGDAVERLEKRLDPASQPPQALLDSVVAQYRSGNLAAAESQAHALTLSFPNHELGWKVLGAVFSVTGRSEESLASMRQALSLNPQDAETFKNLAILLLKLKRAEEAEAACRSALALAPDYPQVHLTLGNALIDLARAAEAEESFRQAIRLKPDYSEAHCNLGCALKLSGRLTEAETCFRRAIQLNPADAQAHNNLGDVFKDLGRFADAEAFYRAAIGLKPEYLEAHSNLLLCLNYFETSSPDTYLAEAKQYGSVASAAATPKFSAWSIQPEPRRLRVGFISGDLNSHPVGYFSESVFQHLDRDRFELFAFPTTPKTDALTSRISPFFAGWCPIFGMDDHAAATAIHTQGVHVLVDLSGHTADNRLPVFAFRPAPVQASWLGYFATTGLPEMDYFLGDRYMVTETEQQRFTETLWRLPETWLCLAPHERSIPINPPPVLTNGFMTFGCLGNLSKMNGEVVALWSQILRAVPESKLLLKAKPFVDAQVVADIQARFAREGVSSDRLILEGPSSRAEYFETYNRIDLVLDTFPYPGGTTSVDALWMGVPVLTLAGDRFLARLGESIARNAGQSAWVARDRADYLAKAVAFASVRDVAHDRPALRRSVLTTPLFDPERFARDFGDTLWGMWSQGRSHPLRKDAPCRS” it is “failed”.

For the sequence “MRLTVWTYEGPPQVGAMRVATAMRGVHYVVHAPQGDSYADLLFTMIERRPGRPAVSYTSFQARDLGTDTAALFKTAAADAVARFQPEALLVGSSCTGELIQDDPGGLAKALGLSIPVIPLELPSYQRKENWGAAETFYRLVRTMAGPAAPAPGTPRAPRPAGQRPRCNLLGPTALGFRHRDDVQAVVALLGRMGVDVAVVAPLGASPADLARLGEADFNVVLYPEIADTAVRWLERAFGQPSVRTVPIGVGATRAFIAEVAAVAGVDPAPALAEESLRLPWWSRSVDSTYLTGKRVFIFGDATHAVAAARVATEEFGFEVVGLGTYAREYARELRACAGALGLEALITDDYLDVEAAIADAHPDLVLGTQMERHIAKRLGVPCAVISAPVHVQDFPARTAPQMGFDGANVLFDTWVHPLMMGLEEHLLMMFRDDFEFHGDAAPSHLSAHRPTGEAVGDAVGEPPAAPRDQAAPAATLDGSAAQSDPARTTPPGAPSWEDSAEKELRKVPFFVRGKARRNTERFAAERGLASISVETLYDAKAHFGR”, the protein production result is given as “failed”. Turning to “MRMEDEDYNTSISYGDEYPDYLDSIVVLEDLSPLEARVTRIFLVVVYSIVCFLGILGNGLVIIIATFKMKKTVNMVWFLNLAVADFLFNVFLPIHITYAAMDYHWVFGTAMCKISNFLLIHNMFTSVFLLTIISSDRCISVLLPVWSQNHRSVRLAYMACMVIWVLAFFLSSPSLVFRDTANLHGKISCFNNFSLSTPGSSSWPTHSQMDPVGYSRHMVVTVTRFLCGFLVPVLIITACYLTIVCKLQRNRLAKTKKPFKIIVTIIITFFLCWCPYHTLNLLELHHTAMPGSVFSLGLPLATALAIANSCMNPILYVFMGQDFKKFKVALFSRLVNALSEDTGHSSYPSHRSFTKMSSMNERTSMNERETGML”, the protein production entry is listed as “failed”. The entry for “MRMNILLAFKAEPDAGMLAEKEWQAAQGNSGPDVSLLRSLLGADEQAAAALLLAQRKNGTSMSLTALSMGDERALHWLRYLMALGFEDAVLLETAADLRFAPEFVARHIAEWQYQNPLELIITGCQSSEGQNGQTPFLLAEMLGWPCFTQVERFTLDAPFITLEQRTENGLRCCRVRLPAVIAVRQCGEVALPVPGMRQRMAAGKAEIIRKTVAAEMPAMQCLQLARAEQRRGATLIDGQTVAEKAQKLWQYYLCQRMQP” is “failed”.

Consider “MRNGILYAILLYVFMFVLWFCFAYFIDTSTTIFNIPLWFFLSGILFPSIIFFWFVFLF”, for which the protein production result was “failed”.
